We go through eight molecules from publication PMC5539093, “Functional Characterization of Four Putative δ^1-Pyrroline-5-Carboxylate Reductases from Bacillus subtilis” (Frontiers in Microbiology, 2017).

By IC50 is commonly meant the concentration needed to halve the response being measured. One may read the Km as the substrate concentration at which the rate is half of its maximum. As usually defined, the kcat is the maximal rate divided by the concentration of active sites. What is called kcat/Km is the turnover number divided by the Michaelis constant. Usually stoichiometry N stands for a count of units in the complex or per binding partner.

In series [1] the target is T1, ProH (Bacillus subtilis, UniProt P0CI77).
T1 construct: full-length; pMCSG68, N-terminal His6-TEV tag removed; E. coli BL21 Gold; homodimer by SAXS
As to the kind of experiment: NAD(P)H oxidation at […] nm. It counts as biochemical.

Series [2] concerns the target T2, ProG (Bacillus subtilis, UniProt Q00777).
T2 construct: full-length; pMCSG68, N-terminal His6-TEV tag removed; E. coli BL21 Gold; homodimer by SAXS
As to the kind of experiment: NAD(P)H oxidation at […] nm. Type of series: biochemical.

Series [3] concerns the target T3, ComER (Bacillus subtilis, UniProt P39696).
T3 construct: full-length; pMCSG68, N-terminal His6-TEV tag removed; E. coli BL21 Gold; monomer by SAXS
As to the kind of experiment: NAD(P)H oxidation at […] nm. It counts as biochemical.

Series [4] concerns the target T4, ProI (Bacillus subtilis, UniProt P54552).
T4 construct: full-length; pMCSG68, N-terminal His6-TEV tag removed; E. coli BL21 Gold; homodimer by SAXS
Put plainly: NAD(P)H oxidation at […] nm. Type of series: biochemical.

Substrate in series [5]: O=C(O)[C@@H]1CCC=N1
As to the kind of experiment: purified protein. It counts as biochemical, Bacillus subtilis. The conditions noted are these: 0.5 mM NADPH, 20 mM Tris-HCl pH 7.0, 30°C.

Substrate in series [6]: NC(=O)C1=CN([C@@H]2O[C@H](COP(=O)(O)OP(=O)(O)OC[C@H]3O[C@@H](n4cnc5c(N)ncnc54)[C@H](OP(=O)(O)O)[C@@H]3O)[C@@H](O)[C@H]2O)C=CC1
Put plainly: purified protein. It counts as biochemical, Bacillus subtilis. The conditions noted are these: 1 mM L-P5C, 20 mM Tris-HCl pH 7.0, 30°C, kcat per monomer.

Series [7] concerns the molecule itself. Put plainly: small-angle X-ray scattering (SAXS) in line with SEC; each native protein at 5 mg mL^-1 loaded onto a Superdex 200 column in 20 mM HEPES pH 8.0, 150 mM NaCl, 2 mM TCEP, routed into the flow cell; oligomeric state from mass, Rg, Dmax and ab initio envelope.
Substrate in series [8]: NC(=O)C1=CN([C@@H]2O[C@H](COP(=O)(O)OP(=O)(O)OC[C@H]3O[C@@H](n4cnc5c(N)ncnc54)[C@H](O)[C@@H]3O)[C@@H](O)[C@H]2O)C=CC1
Put plainly: purified protein. Type of series: biochemical, Bacillus subtilis. The conditions noted are these: 1 mM L-P5C, 20 mM Tris-HCl pH 7.0, 30°C.

Regarding `NC(=O)c1ccc[n+]([C@@H]2O[C@H](COP(=O)(O)OP(=O)(O)OC[C@H]3O[C@@H](n4cnc5c(N)ncnc54)[C@H](OP(=O)(O)O)[C@@H]3O)[C@@H](O)[C@H]2O)c1` [NADP^+], the half-inhibitory concentration (IC50) in series [1] is 0.66 ± 0.1 mM; in series [2], 0.23 ± 0.03 mM; in series [3] it was 0.48 ± 0.07 mM; in series [4], 0.34 ± 0.04 mM.

As to `O=C(O)[C@@H]1CCCN1` [proline], the figures for the half-maximal inhibitory concentration (IC50) in series [1] and in series [2] were 41.4 ± 4.2 mM and 22.3 ± 2.1 mM, respectively.

As for `NC(=O)c1ccc[n+]([C@@H]2O[C@H](COP(=O)(O)OP(=O)(O)OC[C@H]3O[C@@H](n4cnc5c(N)ncnc54)[C@H](O)[C@@H]3O)[C@@H](O)[C@H]2O)c1` [NAD^+], the concentration for half-maximal inhibition (IC50) in series [1] is 44.5 ± 11.6 mM; in series [3], 29.7 ± 3.7 mM; in series [4], 6.22 ± 0.6 mM.

B1: ProG, putative δ1-pyrroline-5-carboxylate (P5C) reductase from Bacillus subtilis (enzyme, Bacillus subtilis strain 168, UniProt Q00777 1-272, looked up)
chain: MEQIGLIGYGSMADMIARQLLKHEQIKENELFIETRTKGERLRALMSDYPNVSADPLENWANTCQLILICVPPLHVIETMRRLYPYVNRNTHIVSIAAGVPLRLLEAETEAGISRVIPAITSEAEAGISLVVHSEALAAEKKERLNELLSVFSRVREIKESNLDVASNLTSSAPGFIAAIFEELALSAVRNSSLSKEEAFDFLIHSLYGTGKMLIEKNMSFEETLERVATKGGITGEGAEVIHASVPDVFDEVFERTLRKYELLTEQVGKQT
notes: ProG, putative P5C reductase, Bacillus subtilis strain 168; calculated mass 30.20 kDa; Cloned in pMCSG68 (His6 tag and TEV site at the N-terminus); also called P5C reductase ProG; source: E. coli BL21 Gold, purified (Ni-NTA, TEV cleavage, second Ni-NTA, SEC on Superdex 200); not shown: His6, N-terminal, cleaved
Turning to B1, in series [5], the Km is 64.9 ± 8.1 µM. Besides, in series [6], the Km turned out to be 232 ± 18 µM, the kcat was 19 s⁻¹ and the kcat/Km is 84000 M⁻¹ s⁻¹. The “stoichiometry N” value in series [7] was determined as 2.

B2: ProI, putative δ1-pyrroline-5-carboxylate (P5C) reductase from Bacillus subtilis (enzyme, Bacillus subtilis strain 168, UniProt P54552 1-278, looked up)
chain: MKKIGFVGAGSMAEAMINGILQSGITKPEHIYITNRSNDERLIELKETYSVRPCRDKNEFFTHTDIIILAFKPKDAAESIDSIRPYIKDQLVISVLAGLTIETIQHYFGRKLAVIRVMPNTSAAIRKSATGFSVSTEASKNDIIAAKALLETIGDATLVEERHLDAVTAIAGSGPAYVYRYIEAMEKAAQKVGLDKETAKALILQTMAGATDMLLQSGKQPEKLRKEITSPGGTTEAGLRALQDSRFEEAIIHCIEETAKRSAEIKEQFAGAALERHS
notes: ProI, putative P5C reductase, Bacillus subtilis strain 168; calculated mass 30.90 kDa; Cloned in pMCSG68 (His6 tag and TEV site at the N-terminus); also called P5C reductase ProI; source: E. coli BL21 Gold, purified (Ni-NTA, TEV cleavage, second Ni-NTA, SEC on Superdex 200); not shown: His6, N-terminal, cleaved
Consider B2, for which the Michaelis constant (Km) was 203 ± 30 µM in series [5], 1,810 ± 480 μM in series [8] (kcat per monomer) and 51.8 ± 2.8 µM in series [6]. Also, the kcat in series [8] (kcat per monomer) came out at 0.28 s⁻¹; in series [6], 0.14 s⁻¹. Moreover, the kcat/Km in series [8] (kcat per monomer) was 150 M⁻¹ s⁻¹; in series [6], 2600 M⁻¹ s⁻¹. The “stoichiometry N” value in series [7] amounted to 2.

B3: ProH (Bacillus subtilis subsp. subtilis str. 168) (protein)
chain: MRTKKRTKEMLPIFDQKKVAFIGAGSMAEGMISGIVRANKIPKQNICVTNRSNTERLTELELQYGIKGALPNQLCIEDMDVLILAMKPKDAENALSSLKSRIQPHQLILSVLAGITTSFIEQSLLNEQPVVRVMPNTSSMIGASATAIALGKYVSEDLKKLAEALLGCMGEVYTIQENQMDIFTGIAGSGPAYFYYLMEFIEKTGEEAGLDKQLSRSIGAQTLLGAAKMLMETGEHPEILRDNITSPNGTTAAGLQA
notes: full-length; pMCSG68, N-terminal His6-TEV tag removed; E. coli BL21 Gold; homodimer by SAXS
Consider B3, for which the Km in series [8] is 786 ± 36 µM. Besides, in series [6], the Michaelis-Menten constant (Km) is 13.6 ± 2.6 µM, the kcat was 814 s⁻¹ and the kcat/Km was 6.3e+07 M⁻¹ s⁻¹.

B4: ProH, putative δ1-pyrroline-5-carboxylate (P5C) reductase from Bacillus subtilis (enzyme, Bacillus subtilis strain 168, UniProt P0CI77 1-297, looked up)
chain: MRTKKRTKEMLPIFDQKKVAFIGAGSMAEGMISGIVRANKIPKQNICVTNRSNTERLTELELQYGIKGALPNQLCIEDMDVLILAMKPKDAENALSSLKSRIQPHQLILSVLAGITTSFIEQSLLNEQPVVRVMPNTSSMIGASATAIALGKYVSEDLKKLAEALLGCMGEVYTIQENQMDIFTGIAGSGPAYFYYLMEFIEKTGEEAGLDKQLSRSIGAQTLLGAAKMLMETGEHPEILRDNITSPNGTTAAGLQALKKSGGGEAISQAIKHAAKRSKEISEDIEKTAAPLSGVIK
notes: ProH, putative P5C reductase, Bacillus subtilis strain 168; calculated mass 32.03 kDa; Cloned in pMCSG68 (His6 tag and TEV site at the N-terminus); also called P5C reductase ProH; source: E. coli BL21 Gold, purified (Ni-NTA, TEV cleavage, second Ni-NTA, SEC on Superdex 200); not shown: His6, N-terminal, cleaved
With B4, the “stoichiometry N” value in series [7] came out at 2.

B5: ComER (Bacillus subtilis subsp. subtilis str. 168) (protein)
chain: MKIGFIGTGNMGTILIESFIESKAADPSNMTITNRTIEKALHIKNRYNSINVTESLEKLVSENEMIFICVKPLDIYPLLARALPYLRKDHILISITSPVQTEQLEQYVPCQVARVIPSITNRALAGVSLVTFGTSCGESAKAKINELMQHISHPLQIESDITRVASDIVSCGPAFMSYLIQRFIDAAVSETSVSKQDAILMCKEMLVGMGKLLETELYTLPALQEKVCVKGGVTGEGIKALESGVQDMFHRVFQNTHMKYEEDISAVKKQFHV
notes: full-length; pMCSG68, N-terminal His6-TEV tag removed; E. coli BL21 Gold; monomer by SAXS
B5: the Michaelis-Menten constant (Km) in series [5] (kcat per monomer) is 3150 ± 1420 µM; in series [8] (kcat per monomer), 226 ± 14 µM; in series [6] it was 1.2 ± 0.4 µM. Further, the kcat in series [5] (kcat per monomer) stood at 0.09 s⁻¹; in series [8] (kcat per monomer), 0.06 s⁻¹; in series [6], 0.09 s⁻¹. In addition, the specificity constant (kcat/Km) is 270 M⁻¹ s⁻¹ in series [8] (kcat per monomer) and 75000 M⁻¹ s⁻¹ in series [6].
